Drawing on patent US20090264512, “NUCLEIC ACID LIGANDS CAPABLE OF BINDING TO […] OR INTERNALIN A” (published 2009), this text covers binding result and EC50 for five molecules.

Data set [1] addresses T1, Internalin A (InlA) (Listeria monocytogenes, UniProt P0DJM0 P0DJM0:36-770).
T1 sequence: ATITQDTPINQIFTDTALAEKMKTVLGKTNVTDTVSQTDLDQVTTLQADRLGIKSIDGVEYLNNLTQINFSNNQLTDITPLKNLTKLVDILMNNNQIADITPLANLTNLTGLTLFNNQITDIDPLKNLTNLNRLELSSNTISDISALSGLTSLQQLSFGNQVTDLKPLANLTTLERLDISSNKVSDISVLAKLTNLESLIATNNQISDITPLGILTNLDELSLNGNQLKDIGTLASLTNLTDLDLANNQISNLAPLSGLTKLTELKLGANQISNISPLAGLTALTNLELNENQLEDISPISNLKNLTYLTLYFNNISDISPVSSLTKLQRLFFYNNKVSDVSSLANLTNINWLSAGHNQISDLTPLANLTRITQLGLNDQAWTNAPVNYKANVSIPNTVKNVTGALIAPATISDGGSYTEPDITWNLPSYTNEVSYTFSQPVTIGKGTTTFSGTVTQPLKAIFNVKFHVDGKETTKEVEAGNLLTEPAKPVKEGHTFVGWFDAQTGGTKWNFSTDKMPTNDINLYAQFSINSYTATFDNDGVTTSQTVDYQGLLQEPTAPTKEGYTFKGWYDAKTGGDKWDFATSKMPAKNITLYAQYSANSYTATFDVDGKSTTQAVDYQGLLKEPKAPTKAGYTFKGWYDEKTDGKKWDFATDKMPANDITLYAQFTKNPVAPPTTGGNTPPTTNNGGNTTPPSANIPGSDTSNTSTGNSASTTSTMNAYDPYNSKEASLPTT
Description: ELONA; strong ELISA signal compared to library. The note with it: tags: His-tag. The method, then: A nickel-coated microplate (HisSorb, Qiagen) was used to bind 500 ng his-tagged inlA, peptide D or 0610 (Listeria monocytogenes-specific non-internalin cell wall protein) to the plate as per manufacturer's directions. Biotinylated aptamer or aptamer library (5 ng/μL) was heated to 95° C. for 3 minutes and quickly cooled to 4° C. for 5 minutes before application to each well. The biotinylated aptamer or aptamer library was incubated with the bound proteins in the HisSorb plate overnight at 4° C. with gentle shaking. Wells were then washed four times with 200 μL PBS-T. Streptavidin-horseradish peroxidase was added to the wells for 30 minutes at room temperature with gentle shaking. The wells were washed as described previously before development with TMB (Pierce). The reactions were stopped with 1M H₂SO₄ and absorbance was measured at 450 nm using a ThermoMax microplate reader (Molecular Devices). In FIG. 6, the initial aptamer library was used as a negative control, and the data represents the average±S.D. of n=3. […] The amount of selected aptamer bound to the particular proteins was determined by absorbance measured. The data represents the average±S.D. of n=3.
(In general: An ELISA detects its analyte on a solid surface through an enzyme-linked reagent.)

Data set [2] has as its target T1, Internalin A (InlA). Description: competition; competitive ELISA, sigmoidal fit. Conditions: tags: His-tag. The procedure: A specified amount of internalin A (500 ng) was coated on the plate. 5 ng/uL biotinylated aptamer A8 (SEQ ID NO:21) was incubated with increasing amounts of non-biotinylated aptamer A8 and then applied to the coated plates. Using GraphPad Prism 4 software, the Sigmoidal model (equation: a+(b−a)/(1+10̂(x−c))) was used to determine EC50.

ATCAGCAACAAGTGTGGGTAAGGGGAGGGCGGGAATGGGATGATGAT (ssDNA) [InlA aptamer SEQ 23]: in the data set with Internalin A (InlA) [1], the binding result is listed as “binds”.

For the molecule ATCGGATGTGGGCAGGGGGGGGTGGGAAACGATTACAGACACAAGAT (ssDNA) [InlA aptamer SEQ 24], the binding result with Internalin A (InlA) [1] was “binds”.

Regarding ATCTAGGACTGGGTGGGAAGGGATGGGAAAAATGTCCGCGCCTCGAT (ssDNA) [InlA aptamer SEQ 22], in the data set with Internalin A (InlA) [1], the binding result was “binds”.

In the data set with Internalin A (InlA) [2], ATCCATGGGGCGGAGATGAGGGGGAGGAGGGCGGGTACCCGGTTGAT (ssDNA) [A8] yielded a concentration for a half-maximal effect (EC50) of 544 nM.

As to ATCGGGTTATAGTTAGCGGGTAGGGGAGGGAGGGTAGATAGCTCGAT (ssDNA) [InlA aptamer SEQ 25], the binding result in the data set with Internalin A (InlA) [1] is “binds”.

A word on the EC50: it is the concentration that produces a half-maximal response. Low values mean an effect from little substance, high ones a need for much substance.
